The values that follow come from PMC5043356, “A general solution for opening double-stranded DNA for isothermal amplification”.

This data set deals with RecA (Escherichia coli BJ5183, UniProt P0A7G6 1-353). Briefly: EMSA; no nucleotide cofactor; 1 mM Mg2+ (10 mM in Fig. S1B); about 5 nt per RecA; 25 mM Tris pH 7.6, 1 mM MgCl2 (10 mM in supplementary assays), 1 mM DTT, 37 C, 10 min, 12 pmol X1 in 10 ul; 2% native agarose gel. Particulars: protein: recombinant; tags: His tag (pET28a, Ni purification); single strand.
Sequence of RecA (P0A7G6 whole entry): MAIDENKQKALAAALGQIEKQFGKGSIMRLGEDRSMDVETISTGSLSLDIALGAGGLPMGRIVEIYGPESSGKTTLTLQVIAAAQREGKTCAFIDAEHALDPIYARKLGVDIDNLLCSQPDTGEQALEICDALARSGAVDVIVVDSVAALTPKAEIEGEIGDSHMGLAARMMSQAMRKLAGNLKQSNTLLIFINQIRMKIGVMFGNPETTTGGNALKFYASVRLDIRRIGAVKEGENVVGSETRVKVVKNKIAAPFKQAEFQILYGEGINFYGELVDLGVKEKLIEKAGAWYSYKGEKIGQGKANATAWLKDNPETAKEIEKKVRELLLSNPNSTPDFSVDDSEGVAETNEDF

B1: X1 (54 nt) (ssDNA)
DNA: TACGTTAACAAAAAGTCAGATATGGACCTTGCTGCTAAAGGTCTAGGAGCTAAA
Take B1: the binding result is “binds”.
